# Assay results: the DeepSol protein solubility set
# Experiment: soluble on expression in E. coli; label from the status in PepcDB or PDB records
row,Sequence,soluble on expression in E. coli
1,MGFCNMLLLSNILLTAWLSTAKGEEILCTPPRVENGDGLNVKPVYKENERYHYKCKHGYVPKERGDAICTGSGWSSQPFCEEKTCSPPYILNGIYTPHRIIHRSDDEIRYECNYGFYPVTGSTVSKCTPTGWIPVPRCTLKPCEFPQFKYGRLYYEESLRPNFPVSIGNKYSYRCDNGFSPPSGYSWDYLRCTAQGWEPEVPCVRKCVFHYVENGDSAYWEKIYVQGQSLKVQCYNGYSLQNGQDIMTCTENGWSPPPKCIRIKTCSASDIHIDNGFLSESSYIYALNRETSYRCKQGYVTNTGEISGSITCLQNGWSPQPSCIKSCDMPVFENSITKNTRTWFKLNDKLDYECLVGFENEYKHTKGSITCTYYGWSDTPSCYDSTRTCGPPPPIDNGDITSLSLPEYEPLSSVDYQCQKYYLLKGNKTITCRNGKWSEPPTCLHACVIPENIMEAHNIILKWRHTEKIYAHSGEDIEFECKRGYQKARGSLPFRTKCINGTINYPTCV,soluble
2,MRMENQKDLQENYLKVLERVELGSRVSGTVVNIMKDYVLVDIGYKSEGFIKIEEFENVPQVGDRLEAIVVRIGGELGLILSVEKLNSLNFQDKVYEYIQNKKIIKGKVLVELPNGYKIQINENVSGFMPFYLSSKSKDEKLKRGSVVEFYILEASEADGLRLILDRRTLEKERDLAKRIELVSSYNEEDVVDGVVERITEYGAIVKIKNFVTGILHKRNIAFNQVENVEDFVRVGDKLKLKIIKINPQTGKMELSLKALKANPWDSVDVKYKIDSIVKGKVVKILPFGAVIELDSELSGFLHISNFSWIRVVKSPQELIKLGQIVEVKILEIDKENQKISLGIKQINENPWERLTEKYPIGRVVQGVVTNITKTGAFVNIEEGIDAYVSKFDISWLEEIDPEEYFKIGDLVNGKVLEVDKRKRNVRLGIKQLEESPWEDFSKSYKKGDTIEVEIVEKKSKGFQVRVYNKIMGFISKIQLGDTKESSLETFEKLNVGDKLKVVITSIDSKDKSVLLSYREYENQRSREEISSYLFKGNDEESYKPFENLLKRDELEHHHHHH,soluble
3,MLEDPGGRPRVYVDVREERSPVPSILESLGVQVIPKQLPMGDYLVSDSIIVERKTSSDFAKSLFDGRLFEQASRLAEHYETVFIIVEGPPVPRRYRGRERSLYAAMAALQLDYGIRLMNTMDPKGTALVIESLARLSTREGGQRIVIHKKPRLSDVREWQLYILQSFPGIGRRTAERILERFGSLERFFTASKAEISKVEGIGEKRAEEIKKILMTPYK,soluble
4,MAEHECVQLVPIFSELGSEQLDIIESIVRHHHYPAGSTLFGADDPLDSLMIVANGQVKVYQLAANGREQLLYLLQTGDIDGEAALFENQRRTSFGEALVPTDVCSIRRSDFQDLMQKYPSISINVLNVFGKRLNQLERQTTSTATESVEARLANYITETAAALKTDTFKLPLKKKDLATFLGTTPESISRKLALFERQGLITQKPGKVIEINDADQLLLTE,soluble
5,TKEHRAIARKTASESFVLLKNEGVLPLSKKGTIAVVGPLANTRSNMPGTWSVAAVLDNAPSLVEGLREVVGDRAKVVTAKGSNLIGDADYEKRATMFGRELHRDNRTDRELLDEALKVAAGADVIVAALGESSEMSGESSSRTNLEMPDVQRALLQELLKTGKSVVLVLFTGRPLVLTWEEEHVPAILNVWFGGSEAAYAISDVLFGDVNPSGKLTATFPQNVGQIPLFYNHKNTGRPLQEGRWFEKFRSNYLDVSNEPLYPFGYGL,not soluble
6,MINLSNLSAVATSVARAALGESNTSKINHAFDVASHIAGQTALRVGNSLLEQINRLNERQQQGLSEILKALRGEKPVDGVHTHSGGGLFKLARAAFDVVSVVWERDKLKPHVMSFLKALDSQGKTLFSLGKEMAKAFAESVQGPDKNNGKTESSPYASFASKVGMSKVVQRLFNELGRPGAERVRRPTSGPAPRPGGAEQQARPETPPRTRPQANGAPPPPPKAEPRPSSGRPGGAQQQARPETPPRSRPQTNSAPPPPRAEPRPASGRPGGAQQQARPETPPRSRPQTNSAPPPPKAEPRPSSGRPGGAQQQARPETPPRSRPQTNNAPPPRSNNTAGASASAKVGESGPAKPAVKPLYEWLGLSDMTASPAAVKKAYYNASMKHHPDKNPGDAGATARFQDISNAFSILSDPEKRKAYDSGRMNEKGQYV,not soluble
7,MEIQFLGTGAGVPAKHRNVTGIALKLLDERNAVWLFDCGEGTQLQILKSSIRPRKIEKIFITHLHGDHIFGLPGLLSSRSFQGGTEPLEIYGPVGIADFVKTSLRVSQSRLSYPLKFIELTKENDVIFKDKQFTVRCNILDHGITSFGYRIEEAAHEGELQVEKLQALGIPSGPLYGKLKRGETIVFDGQEINGQAFVGERKPGRIVTILGDTRKTKNSVTLARRADVLVHESTFNKHEAKMAKAYFHSTSQQAAEVAKEAQVKQLILTHISARYLTKEAYQLQEEAQEIFPNTKIVKDMDIIEIPFANEGGA,not soluble
8,MSRVSTAPSGKPTAAHALLSRLRDHGVGKVFGVVGREAASILFDEVEGIDFVLTRHEFTAGVAADVLARITGRPQACWATLGPGMTNLSTGIATSVLDRSPVIALAAQSESHDIFPNDTHQCLDSVAIVAPMSKYAVELQRPHEITDLVDSAVNAAMTEPVGPSFISLPVDLLGSSEGIDTTVPNPPANTPAKPVGVVADGWQKAADQAAALLAEAKHPVLVVGAAAIRSGAVPAIRALAERLNIPVITTYIAKGVLPVGHELNYGAVTGYMDGILNFPALQTMFAPVDLVLTVGYDYAEDLRPSMWQKGIEKKTVRISPTVNPIPRVYRPDVDVVTDVLAFVEHFETATASFGAKQRHDIEPLRARIAEFLADPETYEDGMRVHQVIDSMNTVMEEAAEPGEGTIVSDIGFFRHYGVLFARADQPFGFLTSAGCSSFGYGIPAAIGAQMARPDQPTFLIAGDGGFHSNSSDLETIARLNLPIVTVVVNNDTNGLIELYQNIGHHRSHDPAVKFGGVDFVALAEANGVDATRATNREELLAALRKGAELGRPFLIEVPVNYDFQPGGFGALSI,soluble
9,MSEVDAQEEFHDAPEEAVIEIQKDFVAEIEQDNSNAQLVEEGDDQLVTAEADDEKSAQQVDEDRTEDQVPDITGTEYVDPMTTSMDGIEDLPANDEAQFEDTILEEDELPDQLESAENQEPRSELVSSGVEEEIIEEEDIEEIEESDYVEESAPADEPAPEEEKPQEEAPAEEPAPAEEAPQEEVPAEEPVAEETAPAEEAAVEEPVVEEAAPVEEAPEAEETAPAEEPLIEVAVEEAPAEEPVAEEAEPEAEKQEFELQAPPEGKRPRTPNDLDNPTADEEPAAELEADAGSEVPPTPKTAASEKQSVPPTPKSAAPSEVPPTPKSAAPSEVPPTPKSAAPSEVPLTPKSAAQSSVPPTPKSAVPSEAPPTPRSAAPSDVPPTPKSNGHIANGSIPGTPSVAQESAKATPAATPAATATPAATATPAATGTPKADTAFNFEETPATPRSSVPATPTESNLTTPAPKTPKTPKTPRTPRTPKTPRTPKTPAVVEPEPEPVAEEPEPVAEPEPEPEPVAEAEPEAEPAVEEEPAEEPEPAADETATEPTAEEAEPEAVEESIEKTEVVEEESAPPAARQSSPSPPPARRRPQSPSPERQRTSRHADRDITSYDEDSYRAVPPPRMPTATSFSSWSPPDKQSYTPISPFVSTANKYRNEYTSGSSYRPTNMYTSHFDDIVATGAFSSALYSTNRLIERSRSRTRERKQAMRSQRSASNYYRYSSQAPAPLRAREYSTPPTREISRAPSRNTSFVSFLDYSSAKQGELSRANSRTSIYGDSLSRSCSRANVDAYLGGGRLSRVDSYVRDIHTPYEYEVPSTYDRYRSSSRGPSYSTINGYTAYISSPSYVETESTRRMKRYQRDTSPAMVRSMYEGRIGQLERSLSREVIQKDRVCLWRLGNVVYGGLYRKKYDADLEKAVQYYSSCAKKRRF,not soluble
10,MGSDKIHHHHHHMRAVSIVGLGWLGLTLARHLKNLGWKVKGTKRTHEGVEQMRLIRLEAYHLELTPDINADPDDLTALLSVDALVINIPPSQYFFHLQHYVQGVKNLVNEALLNGLQHIIFISSTSVFPDVSGEFDEQSQIVPQSEMSKALLEIEQWLFELKDVDCDIIRFGGLVGEDRHPVYSLAGKDELSAGNMPINLVHVDDCARAIQLLLETPSSQRLYHLVAPQHPTRAEYYSQIAEKLALEAPHFICSEQDPRRVILANKICRELSFVYQCPDPYLMLFERK,not soluble
11,MSKIIGIDLGTTNSCVAVLEGGEVKVIPNPEGNRTTPSVVAFKNGERLVGEVAKRQAITNPNTIISIKRHMGTDYKVEIEGKQYTPQEISAIILQYLKSYAEDYLGEPVTRAVITVPAYFNDAQRQATKDAGRIAGLEVERIINEPTAAALAYGLDKEEDQTILVYDLGGGTFDVSILELGDGVFEVKATAGDNHLGGDDFDQVIIDYLVNQFKQEHGIDLSKDKMALQRLKDAAEKAKKELSGVTQTQISLPFISANENGPLHLEMTLTRAKFEELSAHLVERTMGPVRQALQDAGLTPADIDKVILVGGSTRIPAVQEAIKRELGKEPHKGVNPDEVVAIGAAIQGGVIAGEVKDVVLLDVTPLSLGIETMGGVFTKLIERNTTIPTSKSQVFTTAADNQTTVDIHVLQGERPMAADNKSLGRFQLTGIPPAPRGVPQIEVTFDIDANGIVHVRAKDLGTNKEQSITIKSSSGLSEEEIQRMIKEAEENAEADRKRKEAAELRNEAD,soluble
12,MAHHHHHHMGLTDLFRRETPQERIRMYKRQLDRTCRDLDRERNKLSTQERKIMMEMKKMAKQDQVDAVRIMARDLVRTRKYNQKMYRMRTQIQGVSLRMQTMQSSAQMADAMKGVTKAMRSMNKKMNIPEIQKIMREFEKQNEMMGMKEDMMNDAVDEVMDDDGMEEEETEQEIQKVMDEAGLEFRTKVGVTDTALPQKSTETQGETDEELDARLAALKASMK,soluble
13,MAHHHHHHMNCKNMDTSYEIINYLTKDELDIDLSCMDKKERYKIWKRLPKCELHCHLDVCFSVDFFLNVIRKYNIQPNMSDEEIIDYYLFSKPGKSLDEFVEKALRLTDIYIDYTVVEDLAKHAVFNKYKEGVVLMEFRYSPSFMSFKHNLDKDLIHEAIVKGLNEAVALLEYKIQVGLLCTGDGGLSHERMKEAAEFCIKHKKDFVGYDHAGHEVDLKPFKDIFDNIREEGISLSVHAGEDVSIPNLNSLYTAINLLHVKRIGHGIRVSESQELIDLVKEKDILLEVCPISNVLLNNVKSMDTHPIRMLYDAGVKVSVNSDDPGMFLTNITDNYEELYTHLNFTLADFMKMNLWAVQKSFVDPDIKNKIISKYF,soluble
14,MSLKKATLKDIAEYFGVSISTVSRALSGKPGVSSELREKILEKAREIGYTPNLMALGLKKGNTRTVGVLIPELSANFFADIVSSIEKSLFHLGYRLILCSTDDDPVKEREHLQLLLDQKVEGILSAPVNVKENKDIYNSIINHFKIPVVFFDRLVEGVDSDFVISDNREGMEILVNYLVKHGHKKIGLIHPLRGSFTGEERLKGFLLFKDSIEIREEWIRDGRSSEQGGYESFLRIMTSQERPTAIVIGNNLMTLGVLKAAKELNIKIPEDISLVSFDDAYWNEIFDPPITCVRQDPQQIGLIAATILLDRMKNRKKPSPRMQVVLKVKFVERSSVRTIKTLKDEGHHHHHH,soluble
15,MGSSHHHHHHSSGLVPRGSHMSKARVYADVNVLRPKEYWDYEALTVQWGEQDDYEVVRKVGRGKYSEVFEGINVNNNEKCIIKILKPVKKKKIKREIKILQNLCGGPNIVKLLDIVRDQHSKTPSLIFEYVNNTDFKVLYPTLTDYDIRYYIYELLKALDYCHSQGIMHRDVKPHNVMIDHELRKLRLIDWGLAEFYHPGKEYNVRVASRYFKGPELLVDLQDYDYSLDMWSLGCMFAGMIFRKEPFFYGHDNHDQLVKIAKVLGTDGLNAYLNKYRIELDPQLEALVGRHSRKPWLKFMNADNQHLVSPEAIDFLDKLLRYDHQERLTALEAMTHPYFQQVRAAENSRTRA,soluble
